# In patent publication US20110020379A1:
# Positions of bridges follow the written chain, without caps; N, C: chain ends. No end group written: not given here.
# Tests used:
# [1] = target: bovine serum albumin (bovine) (UniProt P02769); assay: phage ELISA, 10^10 phagemid per well, BSA-only wells
# [2] = target: unrelated control antibody; assay: phage ELISA, 10^9 phagemid per well, wells coated with control mAb
# [3] = target: bovine serum albumin (bovine) (UniProt P02769); assay: phage ELISA, 10^8 phagemid per well, BSA-only wells
# [4] = target: bovine serum albumin (bovine) (UniProt P02769); assay: phage ELISA, 10^9 phagemid per well, BSA-only wells
# [5] = target: unrelated control antibody; assay: phage ELISA, 10^10 phagemid per well, wells coated with control mAb
# [6] = target: unrelated control antibody; assay: phage ELISA, 10^8 phagemid per well, wells coated with control mAb
# bovine serum albumin (bovine), sequence (P02769 25-607 limits assumed): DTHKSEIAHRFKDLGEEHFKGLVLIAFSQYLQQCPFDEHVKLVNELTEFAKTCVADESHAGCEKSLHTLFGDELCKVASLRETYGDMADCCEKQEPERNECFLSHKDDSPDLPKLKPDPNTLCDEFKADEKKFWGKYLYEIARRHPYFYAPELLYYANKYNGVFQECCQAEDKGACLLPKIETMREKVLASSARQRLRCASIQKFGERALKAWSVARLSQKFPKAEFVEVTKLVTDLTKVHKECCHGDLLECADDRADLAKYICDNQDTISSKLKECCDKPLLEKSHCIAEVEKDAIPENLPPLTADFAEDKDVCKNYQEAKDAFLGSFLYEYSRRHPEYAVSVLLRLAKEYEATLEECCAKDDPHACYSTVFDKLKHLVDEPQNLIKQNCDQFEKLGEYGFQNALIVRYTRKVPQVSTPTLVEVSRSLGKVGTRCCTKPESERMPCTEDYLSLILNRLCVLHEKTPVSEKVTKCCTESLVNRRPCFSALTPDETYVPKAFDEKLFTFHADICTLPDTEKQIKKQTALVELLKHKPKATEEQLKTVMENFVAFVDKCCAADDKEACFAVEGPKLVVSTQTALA
binder,measurement,setting,value
CSGLYPWDMFRCS (disulfide 1-12 (inferred)) [phagemid CS1-9p],ELISA (absorbance units) (absorbance units),[1],0.221
same,ELISA (absorbance units) (absorbance units),[2],0.204
same,ELISA (absorbance units) (absorbance units),[3],0.216
same,ELISA (absorbance units) (absorbance units),[4],0.22
same,ELISA (absorbance units) (absorbance units),[5],0.213
same,ELISA (absorbance units) (absorbance units),[6],0.209
CSFRYQWDMFRCS (disulfide 1-12 (inferred)) [phagemid CS1-11p],ELISA (absorbance units) (absorbance units),[1],0.304
same,ELISA (absorbance units) (absorbance units),[2],0.258
same,ELISA (absorbance units) (absorbance units),[3],0.268
same,ELISA (absorbance units) (absorbance units),[4],0.278
same,ELISA (absorbance units) (absorbance units),[5],0.242
same,ELISA (absorbance units) (absorbance units),[6],0.252
CSGLYPWDYFMCS (disulfide 1-12 (inferred)) [phagemid CS1-29p],ELISA (absorbance units) (absorbance units),[1],0.141
same,ELISA (absorbance units) (absorbance units),[2],0.136
same,ELISA (absorbance units) (absorbance units),[3],0.127
same,ELISA (absorbance units) (absorbance units),[4],0.147
same,ELISA (absorbance units) (absorbance units),[5],0.148
same,ELISA (absorbance units) (absorbance units),[6],0.125
"CSFFYSLCYCWCS (disulfide (positions not given here); also: disulfide cyclised, pairing of the four Cys not given here) [phagemid CS1-31p]",ELISA (absorbance units) (absorbance units),[1],0.112
same,ELISA (absorbance units) (absorbance units),[2],0.118
same,ELISA (absorbance units) (absorbance units),[3],0.109
same,ELISA (absorbance units) (absorbance units),[4],0.114
same,ELISA (absorbance units) (absorbance units),[5],0.125
same,ELISA (absorbance units) (absorbance units),[6],0.116
CSLFYLWDQDRCS (disulfide 1-12 (inferred)) [phagemid CS1-2p],ELISA (absorbance units) (absorbance units),[1],0.327
same,ELISA (absorbance units) (absorbance units),[2],0.199
same,ELISA (absorbance units) (absorbance units),[3],0.264
same,ELISA (absorbance units) (absorbance units),[4],0.277
same,ELISA (absorbance units) (absorbance units),[5],0.228
same,ELISA (absorbance units) (absorbance units),[6],0.188
CSFRYLWDQDRCS (disulfide 1-12 (inferred)) [phagemid CS1-6p],ELISA (absorbance units) (absorbance units),[1],0.275
same,ELISA (absorbance units) (absorbance units),[2],0.172
same,ELISA (absorbance units) (absorbance units),[3],0.254
same,ELISA (absorbance units) (absorbance units),[4],0.27
same,ELISA (absorbance units) (absorbance units),[5],0.203
same,ELISA (absorbance units) (absorbance units),[6],0.173
